The record followed here is US20250215397A1, “TWO-DIMENSIONAL CULTURE METHOD HAVING CLEAR CHEMICAL COMPOSITION FOR CULTURING THREE-DIMENSIONAL INTESTINAL ORGANOID-DERIVED INTESTINAL STEM CELL AGGREGATE” (KOREA RESEARCH INSTITUTE OF BIOSCIENCE AND BIOTECHNOLOGY, priority 2022, published 2025).

What all share (type): cell-based, human
Test [1] has as its system two-dimensional intestinal stem cell population. As to the kind of experiment: Two-dimensional culture of intestinal stem cell population with removal of medium factors or inhibitor treatment. Conditions: presence or absence of each factor; FIGS. 7-10. The protocol: (§1) The three-dimensional intestinal organoids were isolated from a Matrigel dome and the remaining three-dimensional intestinal organoids were removed as much as possible by pipetting. The separated organoids were placed in 1 ml of 0.25% trypsin-EDTA (TE, Invitrogen) and incubated at 37° C. a water bath for about 5 minutes. Then, pipetting was performed less than five times so that the organoids were allowed to be isolated into single cells and small clumps, and a basal medium was added so that the total volume thereof was 10 ml. The cells fed into a centrifuge were placed on culture dishes coated with feeder cells or 1% of Matrigel (Corning). […]
To measure viability of a two-dimensional intestinal stem cell population cultured in a culture dish coated with 1% of Matrigel, a kit (LIVE/DEAD Viability/Cytotoxicity Kit, Invitrogen) capable of distinguishing and staining surviving cells and dead cells was used. […] The stained cells were observed through a fluorescence microscope (Olympus).
The two-dimensional intestinal stem cell population was plated on a culture dish coated with 1% of Matrigel and then cultured for 2 to 7 days. […] After centrifugation, a medium was added to isolate the cells into single cells, and then the number of cells was measured using CountessIII cell counter (Thermo Scientific. Inc.). […]

Test [2] shares this test system. Kind of test: Differentiation into 2.5-dimensional intestinal epithelial cells by air-liquid interface culture, medium factor screening. The following applies: minimal medium composition; FIG. 24. The procedure:
The intestinal stem cells grown to a density of 70 to 80% were washed 1-2 times with PBS, and then treated with TE in an incubator at 37° C. for 5 to 7 minutes. The intestinal stem cells isolated into single cells were collected and then diluted using the hIO medium. The cells were gathered by centrifugation, supernatant was removed, the intestinal stem cell culture medium was added thereto and sufficiently mixed, and then the number of cells was measured using Countess III cell counter (Thermo Scientific. Inc.). 2.5-3.5×10^5 cells were placed in an insert of 12-transwell plate (Corning) coated with 1% of Matrigel, and cultured in an incubator. After the cell density reached 100%, the culture medium of an upper layer was completely removed, and the culture medium of a lower layer was replaced with a differentiation medium (2 mM of L-glutamine, 1% of Penicillin-Streptomycin, and 15 mM of a HEPES buffer in Advanced DMEM F12) comprising 200 ng/ml of R-spondin 1 (R&D Systems), 100 ng/ml of EGF (R&D Systems), 2.5 µM of Prostaglandin E2 (Sigma-aldrich), 10 μM of SB202190 (Sigma-aldrich), and 10 mM of nicotinamide (Sigma-aldrich). Thereafter, once every 2 days, a surface of the upper layer was washed with the PBS or hIO medium, and the lower layer was replaced with a new differentiation medium and cultured for 8 to 12 days.

Test [3] has the same test system. Kind of test: Subculture of two-dimensional intestinal stem cells, engraftment / cell number. The following applies: factor removed from culture medium, subculture; FIG. 12. The protocol: as §1
The two-dimensional intestinal stem cell population was plated on a culture dish coated with 1% of Matrigel and then cultured for 2 to 7 days. […] After centrifugation, a medium was added to isolate the cells into single cells, and then the number of cells was measured using CountessIII cell counter (Thermo Scientific. Inc.).

B1: R-spondin 1: WNT/R-spondin activator (protein, UniProt Q2MKA7 21-263, looked up)
R-spondin-1: SRGIKGKRQRRISAEGSQACAKGCELCSEVNGCLKCSPKLFILLERNDIRQVGVCLPSCPPGYFDARNPDMNKCIKCKIEHCEACFSHNFCTKCKEGLYLHKGRCYPACPEGSSAANGTMECSSPAQCEMSEWSPWGPCSKKQQLCGFRRGSEERTRRVLHAPVGDHAACSDTKETRRCTVRRVPCPEGQKRRKGGQGRRENANRNLARKESKEAGAGSRRRKGQQQQQQQGTVGPLTSAGPA
As to B1, the “role of essential culture medium factor (stemness, proliferation, death)” value in test [1] was “modulate stemness and proliferation of two-dimensional intestinal stem cells”. Further, the “effect on differentiation into intestinal epithelial cells” value in test [2] is reported as “excellent effect on differentiation into intestinal epithelial cells”.

B2: Noggin: BMP inhibitor (protein, UniProt Q13253 28-232, looked up)
Noggin: QHYLHIRPAPSDNLPLVDLIEHPDPIFDPKEKDLNETLLRSLLGGHYDPGFMATSPPEDRPGGGGGAAGGAEDLAELDQLLRQRPSGAMPSEIKGLEFSEGLAQGKKQRLSKKLRRKLQMWLWSQTFCPVLYAWNDLGSRFWPRYVKVGSCFSKRSCSVPEGMVCKPSKSVHLTVLRWRCQRRGGQRCGWIPIQYPIISECKCSC
In the case of B2, the “need for long-term subculturing” value in test [3] is recorded as “required to more efficiently perform long-term culturing”.

B3: WNT3A: human recombinant WNT3A, Wnt signaling pathway activator (protein, UniProt P56704 19-352, looked up)
Protein Wnt-3a: SYPIWWSLAVGPQYSSLGSQPILCASIPGLVPKQLRFCRNYVEIMPSVAEGIKIGIQECQHQFRGRRWNCTTVHDSLAIFGPVLDKATRESAFVHAIASAGVAFAVTRSCAEGTAAICGCSSRHQGSPGKGWKWGGCSEDIEFGGMVSREFADARENRPDARSAMNRHNNEAGRQAIASHMHLKCKCHGLSGSCEVKTCWWSQPDFRAIGDFLKDKYDSASEMVVEKHRESRGWVETLRPRYTYFKVPTERDLVYYEASPNFCEPNPETGSFGTRDRTCNVSSHGIDGCDLLCCGRGHNARAERRREKCRCVFHWCCYVSCQECTRVYDVHTCK
In the case of B3, the “need for long-term subculturing” value in test [3] was “required to more efficiently perform long-term culturing”.
